This passage reports stoichiometry N results from article doi:10.1101/686782.

Experiment in all cases: cryo-EM structure
The target in assay [1] is V. mimicus FliPQR complex (FliP5Q4R1) (Vibrio mimicus).
Assay [2] deals with V. mimicus FliQ (Vibrio mimicus).
Assay [3] deals with V. mimicus FliP (Vibrio mimicus).

V. mimicus FlhB (natural protein) came in with a stoichiometry N in assay [1] of 1.

As to V. mimicus FliQ (natural protein), the stoichiometry N in assay [2] was 4. For the substance V. mimicus FliP (natural protein), in assay [3], the stoichiometry N amounted to 5.

What is called stoichiometry N is the number of molecules, sites or subunits per partner or assembly.
